Data: PMC9284284

Target: T1, TCP4 DNA-binding domain (Arabidopsis thaliana, UniProt Q8LPR5 45-103)
T1 sequence: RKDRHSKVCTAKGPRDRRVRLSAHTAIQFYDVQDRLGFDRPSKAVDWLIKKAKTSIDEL
Experiment: EMSA

B1: SOC1-DNA (dsDNA)
DNA 1: TAATTAGTTTGTGTGGTCCTCCTCCCGATA
DNA 2: TATCGGGAGGAGGACCACACAAACTAATTA
Does B1 bind?
Result: binds
